From PMC7264293, “Multi-site-mediated entwining of the linear WIR-motif around WIPI β-propellers for autophagy” (Nature Communications, 2020)
No end group written: not given here.

Experiments:
[1] = system: NRK cells with double knock out of ATG2A/ATG2B and stable expression of GFP-LC3; assay: Autophagic flux in ATG2A/ATG2B DKO NRK cells in the presence of bafilomycin A1; type: cell-based, rat; conditions: ATG2A/ATG2B-depleted NRK cells without ATG2A transfection; 10 nM, 2 h
Protocol: NRK cells with double knock out of ATG2A/ATG2B and stably transfected with GFP-LC3 were generous gifts from L.Y., Tsinghua University. DNA sequences encoding full-length ATG2A and its various mutants were cloned into the pCAG-Tandem-Strep-Flag vector. Cells were cultured in DMEM (GIBCO) supplemented with 10% (v/v) fetal bovine serum, 100 U/ml penicillin and 0.1 mg/ml streptomycin and were grown at 37 °C in a humidified atmosphere containing 5% (v/v) CO2. Cells were transfected with wild-type ATG2A and various mutants by the electroporation apparatus (Bio-Rad) according to the manufacturer’s instructions. After 48 h, cells were washed three times by PBS and fixed by 4% (w/v) paraformaldehyde. […] ATG2A and its various mutants were detected by immunofluorescence with the anti-Flag primary antibody (Sigma-Aldrich, F1804, 1:300 dilution) and dylight 594 secondary antibody (EarthOx, E032410-01, 1:500 dilution). Fluorescence images were obtained on an inverted confocal microscope (LSM 880, Carl Zeiss) equipped with a 100 × oil-immersion objective lens (NA = 1.30). […] All the fluorescence images were processed and analyzed using the ZEN imaging software (Carl Zeiss). […]
μm. (b) Quantification of the increment of LC 3 -positive structures with bafilomycin […]
A1 treatment. The increment o f LC 3 -positive structures per cell was quantified with […]
used for quantifi cation (n = 3) . […]

[2] = system: NRK cells with double knock out of ATG2A/ATG2B and stable expression of GFP-LC3; assay: LC3-positive structures in ATG2A/ATG2B DKO NRK cells transfected with ATG2A; type: cell-based, rat; conditions: transfection of full-length ATG2A into ATG2A/B-depleted NRK cells
Protocol: NRK cells with double knock out of ATG2A/ATG2B and stably transfected with GFP-LC3 were generous gifts from L.Y., Tsinghua University. DNA sequences encoding full-length ATG2A and its various mutants were cloned into the pCAG-Tandem-Strep-Flag vector. Cells were cultured in DMEM (GIBCO) supplemented with 10% (v/v) fetal bovine serum, 100 U/ml penicillin and 0.1 mg/ml streptomycin and were grown at 37 °C in a humidified atmosphere containing 5% (v/v) CO2. Cells were transfected with wild-type ATG2A and various mutants by the electroporation apparatus (Bio-Rad) according to the manufacturer’s instructions. After 48 h, cells were washed three times by PBS and fixed by 4% (w/v) paraformaldehyde. For bafilomycin A1 treatment, cells were cultured in the complete medium containing 10 nM bafilomycin A1 for 2 h before being fixed. ATG2A and its various mutants were detected by immunofluorescence with the anti-Flag primary antibody (Sigma-Aldrich, F1804, 1:300 dilution) and dylight 594 secondary antibody (EarthOx, E032410-01, 1:500 dilution). Fluorescence images were obtained on an inverted confocal microscope (LSM 880, Carl Zeiss) equipped with a 100 × oil-immersion objective lens (NA = 1.30). Confocal settings used for image capture were held constant in comparison experiments. All the fluorescence images were processed and analyzed using the ZEN imaging software (Carl Zeiss). […]

[3] = target: T1, WIPI3-Δloop (Homo sapiens, UniProt Q5MNZ6, DEL264-281/DEL75-80); assay: ITC assay, WIR-peptide and its mutants binding to WIPI3-Δloop; conditions: WIPI3-Δloop (Fig. 3e, Supplementary Figs. 6, 7)
T1 construct: GB1-His6 (cleaved yes); made in house; host or cells: Escherichia coli BL21(DE3)
Protocol: (§1) DNA sequences encoding human WIPI3, WIPI3-Δloop, and two ATG2A fragments (1358–1404 and 1374–1404) were each cloned into a modified pET32a vector. The generation of the fusion construct of WIPI3-Δloop with ATG2A(1374–1404) and the mutations in WIPI3 and the ATG2A fragment were performed by using the standard PCR-based mutagenesis method and confirmed by DNA sequencing. All the primers used in the study were listed in Supplementary Table 3. Recombinant proteins were expressed in Escherichia coli BL21(DE3) (Invitrogen, C6000-03) host cells at 16 °C. […] The eluted proteins were further purified by size-exclusion chromatography (Superdex-200 26/60, GE healthcare). For WIPI3 proteins, after cleavage of the tag, the resulting proteins were purified by another step of size-exclusion chromatography with the buffer containing 50 mM Tris-HCl, pH 8.0, 100 mM NaCl, 1 mM EDTA, 1 mM DTT. For ATG2A fragments, recombinant proteins were purified in the same buffer without cleavage of the tag.
ITC assay was performed using a MicroCalorimeter ITC200 (GE Healthcare Life Sciences, USA) at 25 °C. Prior to the experiment, the protein samples were dialyzed in the buffer containing 50 mM Tris-HCl, pH 8.0, 100 mM NaCl, 1 mM EDTA, and 1 mM DTT. WIPI3 proteins were put in the sample cell and GB1-tagged ATG2A fragments were in the syringe of the instrument. In each experiment, the ATG2A fragment was sequentially injected into the stirred calorimeter cell initially containing the WIPI3 protein sample with the injection sequence of 20 × 2 µl at 2-min intervals. The heat of dilution obtained by the titration of the ATG2A fragment into the buffer was subtracted. The integrated, corrected, and concentration-normalized peak areas of the raw data were finally fitted with a model of one binding site using ORIGIN 7.0 (OriginLab).

[4] = system: WIPI3-Δloop N19A/D21A; assay: ITC assay, WIR-peptide binding to WIPI3-Δloop N19A/D21A; design: species or system human; conditions: WIPI3-Δloop N19A/D21A mutant (Supplementary Fig. 5b)
Protocol: as §1
ITC assay was performed using a MicroCalorimeter ITC200 (GE Healthcare Life Sciences, USA) at 25 °C. […]
Supplementary Fig. 5 Structural analysis of the A -B loop of blade 1. […] (b) The binding affinity between the W IR -pept ide and th e W IP I3 -Δloop N19A/D21 A mutant determined b y IT C ex periments. […]

T1 sequence (Q5MNZ6 with tags, fused parts or gaps DEL75-80/DEL264-281): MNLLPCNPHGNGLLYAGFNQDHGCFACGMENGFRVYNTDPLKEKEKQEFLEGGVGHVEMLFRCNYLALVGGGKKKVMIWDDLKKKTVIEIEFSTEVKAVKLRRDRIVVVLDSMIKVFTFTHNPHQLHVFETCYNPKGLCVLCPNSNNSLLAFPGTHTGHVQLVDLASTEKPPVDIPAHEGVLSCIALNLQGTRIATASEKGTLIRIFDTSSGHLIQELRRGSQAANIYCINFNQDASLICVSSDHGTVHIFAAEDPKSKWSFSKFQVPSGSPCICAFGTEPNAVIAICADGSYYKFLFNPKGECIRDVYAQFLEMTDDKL

| Compound | effect of the WIR-peptide mutation on the binding, in words [3] | further results |
| --- | --- | --- |
| CO/C1=C\C(C)=C\[C@@H](C)[C@@H](O)[C@@H](C)C/C(C)=C/C=C/[C@H](OC)[C@@H]([C@@H](C)[C@@H](O)[C@H](C)[C@@]2(O)C[C@@H](O)[C@H](C)[C@@H](C(C)C)O2)OC1=O [bafilomycin A1] |  | increase of LC3-positive structures in the presence of bafilomycin A1, in words [1]: No obvious increase |
| ATG2A WT: full-length wild-type ATG2A, Tandem-Strep-Flag-tagged, expressed by transfection |  | rescue of the depletion defect (large LC3-positive clusters), in words [2]: could rescue the depletion defect |
| WIR-peptide V1380A: WIR-peptide with V1380A point mutation (PRDGEPAVTQLHPGPIVVRDGYFSRPIGSTD; also: GB1 tag, end not given here, His6 tag, end not given here) | affected the binding |  |
| WIR-peptide: GB1-tagged recombinant short fragment (1374–1404) of ATG2A, minimum WIPI-interacting region (PRDGEPVVTQLHPGPIVVRDGYFSRPIGSTD; also: GB1 tag, end not given here, His6 tag, end not given here) |  | binding of the WIR-peptide, in words [4]: abolished the binding |

More lines, main results first:

| effect of the WIR-peptide mutation on the binding, in words [3] | Compound | further results |
| --- | --- | --- |
| disrupted the binding | WIR-peptide D1393A: WIR-peptide with D1393A mutation (PRDGEPVVTQLHPGPIVVRAGYFSRPIGSTD; also: GB1 tag, end not given here, His6 tag, end not given here) |  |
| decreased the binding more severely | WIR-peptide V1381A: WIR-peptide with V1381A point mutation (PRDGEPVATQLHPGPIVVRDGYFSRPIGSTD; also: GB1 tag, end not given here, His6 tag, end not given here) |  |
| severely impaired the binding | WIR-peptide V1391Q: WIR-peptide with V1391Q point mutation (PRDGEPVVTQLHPGPIVQRDGYFSRPIGSTD; also: GB1 tag, end not given here, His6 tag, end not given here) |  |
